The results in this text go back to the supplement of paper PMC9112550, “Optimization of the antimicrobial peptide Bac7 by deep mutational scanning” (BMC Biology, 2022).

This series relates to Escherichia coli TOP10. Kind of series: shrunken log2 fold change of peptide-encoding DNA abundance (4.5 h post-induction vs induction); higher = less antimicrobial activity (less host growth inhibition). Conditions: time post-induction: 4.5 h; library: site-saturation at positions 5, 18, 19, 20.
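Note: peptides expressed intracellularly from a pBAD plasmid library in pooled LB shake-flask culture, induced with 0.3% L-arabinose, DNA abundance read by NGS, three biological replicates, DESeq2 with apeglm shrinkage.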

As to RRIRKRPPRLPRPRPRPARPPRP, the “shrunken log2 fold change” value is 0.575.
In the case of RRIRWRPPRLPRPRPRPADNPRP it was 0.212; in that of RRIRNRPPRLPRPRPRPQYFPRP, -0.00973.
The result for RRIRGRPPRLPRPRPRPSGHPRP reads -0.202; that for RRIRHRPPRLPRPRPRPIWPPRP, 0.0213; that for RRIRERPPRLPRPRPRPIRKPRP, -0.108.
The result for RRIRPRPPRLPRPRPRPVEKPRP reads 0.00127; that for RRIRMRPPRLPRPRPRPCAGPRP, 0.213.
Turning to RRIRVRPPRLPRPRPRPAHMPRP, the “shrunken log2 fold change” value is -0.103.
In the case of RRIRARPPRLPRPRPRPQDNPRP, the “shrunken log2 fold change” value is -0.0337.
For RRIRKRPPRLPRPRPRPNYRPRP, the “shrunken log2 fold change” value is 0.123.
The result for RRIRLRPPRLPRPRPRPQIIPRP reads 0.0457; that for RRIRKRPPRLPRPRPRPEFVPRP, 0.587.
For the sequence RRIRRRPPRLPRPRPRPITPPRP, the “shrunken log2 fold change” value was 0.243.
The result for RRIRSRPPRLPRPRPRPWHHPRP reads -0.0809.
The result for RRIRTRPPRLPRPRPRPKHKPRP reads -0.185; that for RRIRLRPPRLPRPRPRPFAYPRP, -0.163; that for RRIRPRPPRLPRPRPRPLDEPRP, 0.102.
The result for RRIRTRPPRLPRPRPRPWKHPRP reads -0.529; that for RRIRCRPPRLPRPRPRPKCNPRP, -0.201; that for RRIRNRPPRLPRPRPRPQSPPRP, -0.0298.
For RRIRSRPPRLPRPRPRPWMEPRP, the “shrunken log2 fold change” value is -0.384.
In the case of RRIRWRPPRLPRPRPRPPVKPRP it was 0.644.
For RRIRDRPPRLPRPRPRPCDKPRP, the “shrunken log2 fold change” value is -0.206.
The result for RRIRIRPPRLPRPRPRPFFQPRP reads -0.412; that for RRIRMRPPRLPRPRPRPDIYPRP, 0.0832.
In the case of RRIRFRPPRLPRPRPRPLMWPRP it was 0.0935; in that of RRIRCRPPRLPRPRPRPLERPRP, -0.199.
In the case of RRIRLRPPRLPRPRPRPTQLPRP it was 0.221; in that of RRIRLRPPRLPRPRPRPVGYPRP, -0.0152; in that of RRIRLRPPRLPRPRPRPPSSPRP, 1.86.
Take RRIRPRPPRLPRPRPRPYDIPRP: the “shrunken log2 fold change” value was -0.88.
In the case of RRIRYRPPRLPRPRPRPPYYPRP it was -0.214.
In the case of RRIRERPPRLPRPRPRPKFIPRP it was -0.144; in that of RRIRFRPPRLPRPRPRPFEEPRP, -0.119; in that of RRIRQRPPRLPRPRPRPLNFPRP, -0.233.
Regarding RRIRIRPPRLPRPRPRPKSAPRP, the “shrunken log2 fold change” value was -0.0724.
In the case of RRIRCRPPRLPRPRPRPVLTPRP it was -0.191; in that of RRIRKRPPRLPRPRPRPANNPRP, 0.0823.
The result for RRIRPRPPRLPRPRPRPAHDPRP reads 6.73e-05; that for RRIRERPPRLPRPRPRPCWIPRP, -0.594.
The result for RRIRMRPPRLPRPRPRPTPFPRP reads 0.715; that for RRIRARPPRLPRPRPRPTYLPRP, -0.023.
RRIRGRPPRLPRPRPRPVALPRP: the “shrunken log2 fold change” value was found to be 0.639.
Regarding RRIRWRPPRLPRPRPRPRLEPRP, the “shrunken log2 fold change” value stood at 0.778.
In the case of RRIRKRPPRLPRPRPRPADDPRP it was 0.799; in that of RRIRTRPPRLPRPRPRPWKEPRP, -0.0407.
The result for RRIRFRPPRLPRPRPRPEEIPRP reads 0.0025; that for RRIRGRPPRLPRPRPRPKYHPRP, 0.00515.
For the sequence RRIRYRPPRLPRPRPRPRVFPRP, the “shrunken log2 fold change” value is -0.167.
